Assay results from patent US10365283B2, “Activated HER3 as a marker for predicting therapeutic efficacy” (U3 PHARMA GMBH, priority 2006, dated 2019).

Target: T1, pHer3 in BxPC3 and Calu-3 xenografts (Homo sapiens, UniProt P21860)
T1 construct: on FFPE sections of BxPC3 xenografts; endogenous in cells; host or cells: BxPC3 (pancreas cancer) and Calu-3 (NSCLC) human tumour cells grown as xenografts in mice
Assay: Immunohistochemical staining with anti-pHer3 antibody 21D3 on FFPE sections of xenograft tumours after antibody administration
Assay type: in vivo
Settings: FIGS. 7, 8 and 11, versus control IgG1
Method: FIG. 7: Immunohistochemical staining with rabbit monoclonal anti-p Her3 antibody (Cell Signalling 21D3, Lot 4 1:650 dilution, 0.074 ug/ml) on FFPE sections of BxPC3 xenografts, 20×. • (A) and (B) Tumour after administration of control IgG1 500 μg/mouse • (C) and (D) Tumour after administration of antibody U3-1287 500 μg/mouse • Stainings were done in duplicate on three independent xenografts.
FIG. 8: Immunohistochemical staining with rabbit monoclonal anti-pHer3 antibody (Cell Signalling 21D3, Lot 4 1:650 dilution, 0.074 ug/ml) on FFPE sections of BxPC3 xenografts, 20×. • (A) Tumour after administration of antibody U3-1287 25 μg/mouse • (B) Tumour after administration of antibody […] 100 μg/mouse • (C) Tumour after administration of antibody U3-1287 200 μg/mouse • (D) Tumour after administration of antibody U3-1287 500 μg/mouse • (E) Tumour after administration of control IgG1 500 μg/mouse. • Stainings were done in duplicate on three independent xenografts.
FIG. 11: Immunohistochemical staining with rabbit monoclonal anti pHer3 antibody (Cell Signalling 21D3, Lot 4 1:8000 dilution, 0.006 ug/ml) on FFPE sections Calu-3 xenografts, 40×. • (A) and (B) Tumour after administration of control IgG1 25 mg/kg 72 h • (C) and (D) Tumour after administration of antibody U3-1287 25 mg/kg 72 h • Stainings were done in duplicate on five independent xenografts.
Using a microtome, 2-4 μm thin sections were cut, mounted on silanized glass slides and dried at 60° C. for 30 minutes and at 38° C. overnight. Deparaffinisation and rehydration of the specimen was achieved by incubating 2×5 minutes in Xylol, 2×2 minutes in 100% ethanol and 2 minutes each in 96%, 80% and 70% ethanol. After rinsing 20 seconds in distilled water, the slides were incubated for two minutes in PBS. […]
The anti-tumor efficacy of a HER modulator were evaluated in human xenograft tumor studies. In these studies, human tumors were grown as xenografts in immunocompromised mice and therapeutic efficacy was measured by the degree of tumor growth inhibition in response to administrations of the HER modulator. […]

- membrane staining intensity (pHer3): reduction
- pHer3 positive cells compared to whole cell number in the tumour: reduction
- tumour cells compared to whole cell number in the tumour: reduction
Substance: anti-HER3 antibody: anti-HER3 antibody U3-1287 administered to mice bearing BxPC3 or Calu-3 xenografts
